Experimental data reported in the supplement of paper PMC9233669.
Fewer inactive variants are shown than the library holds.

Tests used:
[1] = tested on: biotinyl-Val-oxazolone; experiment: self-aminoacylation, catalytic enhancement (BVO) (fold over background); higher = more active; k-Seq, kA / k0A0; sequences stand for … in GGGAAUGGAUCCACAUCUACGAAUUC…UUCACUGCAGACUUGACGAAGCUG
Outline: (§1)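 Mutagenized RNA pools with a 21-nt variable region (0.43 μM) were reacted with each biotinyl-aminoacyl-oxazolone at 2–1250 μM for 90 minutes at room temperature, in 50 μL HEPES/NaCl/KCl/MgCl2/CaCl2 buffer containing 5% acetonitrile at pH 6.9–7.0. RNA captured on streptavidin was quantified by triplicate qPCR and by Illumina sequencing. The fraction reacted for each sequence was fit to a pseudo-first-order model with bootstrapping, and catalytic enhancement is the median kA divided by the uncatalyzed rate, taken as the low-activity peak of a bimodal Gaussian fit.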

[2] = tested on: biotinyl-Phe-oxazolone; experiment: self-aminoacylation, catalytic enhancement (BFO) (fold over background); higher = more active; k-Seq, kA / k0A0; sequences stand for … in GGGAAUGGAUCCACAUCUACGAAUUC…UUCACUGCAGACUUGACGAAGCUG
Outline: as §1

[3] = tested on: biotinyl-Met-oxazolone; experiment: self-aminoacylation, catalytic enhancement (BMO) (fold over background); higher = more active; k-Seq, kA / k0A0; sequences stand for … in GGGAAUGGAUCCACAUCUACGAAUUC…UUCACUGCAGACUUGACGAAGCUG
Outline: as §1

[4] = tested on: biotinyl-Ile-oxazolone; experiment: self-aminoacylation, catalytic enhancement (BIO) (fold over background); higher = more active; k-Seq, kA / k0A0; sequences stand for … in GGGAAUGGAUCCACAUCUACGAAUUC…UUCACUGCAGACUUGACGAAGCUG
Outline: as §1

[5] = tested on: biotinyl-Leu-oxazolone; experiment: self-aminoacylation, catalytic enhancement (BLO) (fold over background); higher = more active; k-Seq, kA / k0A0; sequences stand for … in GGGAAUGGAUCCACAUCUACGAAUUC…UUCACUGCAGACUUGACGAAGCUG
Outline: as §1

[6] = tested on: biotinyl-Trp-oxazolone; experiment: self-aminoacylation, catalytic enhancement (BWO) (fold over background); higher = more active; k-Seq, kA / k0A0; sequences stand for … in GGGAAUGGAUCCACAUCUACGAAUUC…UUCACUGCAGACUUGACGAAGCUG
Outline: as §1

**Q.** With “AUUCACCUAGGCCAUCGGUUG [Fam2.2 aminoacylation ribozyme variant]” as the sequence, how does the self-aminoacylation [1] read?
**A.** 1.04

**Q.** What about the self-aminoacylation [2] of the same sequence?
**A.** 8.73

**Q.** What about the self-aminoacylation [3] of the same sequence?
**A.** 1.05

**Q.** And the self-aminoacylation [4]?
**A.** 1.08

**Q.** And the self-aminoacylation [5]?
**A.** 1.32

**Q.** What about the self-aminoacylation [6] of the same sequence?
**A.** 0.695

**Q.** How did the self-aminoacylation [1] turn out when “AUUCACCUAGGGCACCGGGUG [Fam2.2 aminoacylation ribozyme variant]” was run?
**A.** 3.88

**Q.** What about the self-aminoacylation [2] of the same sequence?
**A.** 23.3

**Q.** What about the self-aminoacylation [3] of the same sequence?
**A.** 4.01

**Q.** And the self-aminoacylation [4]?
**A.** 3.58

**Q.** And the self-aminoacylation [5]?
**A.** 4.66

**Q.** And the self-aminoacylation [6]?
**A.** 3.62

**Q.** For “AUUCACCUAGGGCAUCGGGUU [Fam2.2 aminoacylation ribozyme variant]”, which self-aminoacylation [1] is on record?
**A.** 2.01

**Q.** What about the self-aminoacylation [2] of the same sequence?
**A.** 5.04

**Q.** And the self-aminoacylation [3]?
**A.** 2.08

**Q.** And the self-aminoacylation [4]?
**A.** 1.91

**Q.** What about the self-aminoacylation [5] of the same sequence?
**A.** 2.37

**Q.** And the self-aminoacylation [6]?
**A.** 2.78

**Q.** For “AUUCACCUAGGGCAUCGGUUG [Fam2.2 aminoacylation ribozyme variant]”, which self-aminoacylation [1] is on record?
**A.** 0.969

**Q.** And the self-aminoacylation [2]?
**A.** 0.577

**Q.** What about the self-aminoacylation [3] of the same sequence?
**A.** 1.05

**Q.** And the self-aminoacylation [4]?
**A.** 1.02

**Q.** And the self-aminoacylation [5]?
**A.** 1.12

**Q.** And the self-aminoacylation [6]?
**A.** 0.909

**Q.** For “AUUCACCUAGGGUAUCGGGUG [Fam2.2 aminoacylation ribozyme variant]”, which self-aminoacylation [1] is on record?
**A.** 3.99

**Q.** What about the self-aminoacylation [2] of the same sequence?
**A.** 50.9

**Q.** And the self-aminoacylation [3]?
**A.** 6.75

**Q.** What about the self-aminoacylation [4] of the same sequence?
**A.** 3.84

**Q.** And the self-aminoacylation [5]?
**A.** 8.63

**Q.** What about the self-aminoacylation [6] of the same sequence?
**A.** 6.31

**Q.** How did the self-aminoacylation [1] turn out when “AUUCACCUAGGUAAUCGCGUG [Fam2.2 aminoacylation ribozyme variant]” was run?
**A.** 2.15

**Q.** And the self-aminoacylation [2]?
**A.** 16.1

**Q.** And the self-aminoacylation [3]?
**A.** 2.51

**Q.** What about the self-aminoacylation [4] of the same sequence?
**A.** 1.75

**Q.** What about the self-aminoacylation [5] of the same sequence?
**A.** 2.8

**Q.** What about the self-aminoacylation [6] of the same sequence?
**A.** 2.74

**Q.** “AUUCACCUAGGUAAUCGGAUG [Fam2.2 aminoacylation ribozyme variant]” was tested. Which self-aminoacylation [1] did it give?
**A.** 0.524

**Q.** What about the self-aminoacylation [2] of the same sequence?
**A.** 0.527

**Q.** What about the self-aminoacylation [3] of the same sequence?
**A.** 0.585

**Q.** And the self-aminoacylation [4]?
**A.** 0.61

**Q.** And the self-aminoacylation [5]?
**A.** 0.546

**Q.** What about the self-aminoacylation [6] of the same sequence?
**A.** 0.594

**Q.** Which self-aminoacylation [1] does the source give for “AUUCACCUAGGUAAUCGGCUG [Fam2.2 aminoacylation ribozyme variant]” here?
**A.** 1.02

**Q.** What about the self-aminoacylation [2] of the same sequence?
**A.** 0.486

**Q.** What about the self-aminoacylation [3] of the same sequence?
**A.** 1.23

**Q.** What about the self-aminoacylation [4] of the same sequence?
**A.** 0.944

**Q.** And the self-aminoacylation [5]?
**A.** 1.31

**Q.** What about the self-aminoacylation [6] of the same sequence?
**A.** 1.2

**Q.** For “AUUCACCUAGGUAAUCGGGUU [Fam2.2 aminoacylation ribozyme variant]”, which self-aminoacylation [1] is on record?
**A.** 1.16

**Q.** And the self-aminoacylation [2]?
**A.** 0.331

**Q.** And the self-aminoacylation [3]?
**A.** 1.09

**Q.** What about the self-aminoacylation [4] of the same sequence?
**A.** 0.997

**Q.** What about the self-aminoacylation [5] of the same sequence?
**A.** 1.17

**Q.** And the self-aminoacylation [6]?
**A.** 0.977

**Q.** Which self-aminoacylation [1] does the source give for “AUUCACCUAGGUAAUUGGGUG [Fam2.2 aminoacylation ribozyme variant]” here?
**A.** 2.63

**Q.** And the self-aminoacylation [2]?
**A.** 32.1

**Q.** And the self-aminoacylation [3]?
**A.** 4.54

**Q.** And the self-aminoacylation [4]?
**A.** 2.94

**Q.** What about the self-aminoacylation [5] of the same sequence?
**A.** 6.35

**Q.** And the self-aminoacylation [6]?
**A.** 4.01

**Q.** How did the self-aminoacylation [1] turn out when “AUUCACCUAGGUCAACGGGGG [Fam2.2 aminoacylation ribozyme variant]” was run?
**A.** 1.84

**Q.** What about the self-aminoacylation [2] of the same sequence?
**A.** 12.7

**Q.** What about the self-aminoacylation [3] of the same sequence?
**A.** 1.83

**Q.** What about the self-aminoacylation [4] of the same sequence?
**A.** 1.75

**Q.** And the self-aminoacylation [5]?
**A.** 2.19

**Q.** What about the self-aminoacylation [6] of the same sequence?
**A.** 2.31

**Q.** “AUUCACCUAGGUCAACGGUUG [Fam2.2 aminoacylation ribozyme variant]” was tested. Which self-aminoacylation [1] did it give?
**A.** 0.808

**Q.** And the self-aminoacylation [2]?
**A.** 1.03

**Q.** What about the self-aminoacylation [3] of the same sequence?
**A.** 0.808

**Q.** What about the self-aminoacylation [4] of the same sequence?
**A.** 0.852

**Q.** What about the self-aminoacylation [5] of the same sequence?
**A.** 0.71

**Q.** What about the self-aminoacylation [6] of the same sequence?
**A.** 0.94
